Laboratory results as given in patent US20250136709A1 (DEVELOPMENT CENTER FOR BIOTECHNOLOGY, published 2025).

Assays:
[1] = target: T1, human CD73 on cells (MDA-MB-231, Calu-1, KLM-1, human CD4+ T-cells) (human, UniProt P21589 27-549); assay: cell-based or functional assay
T1 sequence: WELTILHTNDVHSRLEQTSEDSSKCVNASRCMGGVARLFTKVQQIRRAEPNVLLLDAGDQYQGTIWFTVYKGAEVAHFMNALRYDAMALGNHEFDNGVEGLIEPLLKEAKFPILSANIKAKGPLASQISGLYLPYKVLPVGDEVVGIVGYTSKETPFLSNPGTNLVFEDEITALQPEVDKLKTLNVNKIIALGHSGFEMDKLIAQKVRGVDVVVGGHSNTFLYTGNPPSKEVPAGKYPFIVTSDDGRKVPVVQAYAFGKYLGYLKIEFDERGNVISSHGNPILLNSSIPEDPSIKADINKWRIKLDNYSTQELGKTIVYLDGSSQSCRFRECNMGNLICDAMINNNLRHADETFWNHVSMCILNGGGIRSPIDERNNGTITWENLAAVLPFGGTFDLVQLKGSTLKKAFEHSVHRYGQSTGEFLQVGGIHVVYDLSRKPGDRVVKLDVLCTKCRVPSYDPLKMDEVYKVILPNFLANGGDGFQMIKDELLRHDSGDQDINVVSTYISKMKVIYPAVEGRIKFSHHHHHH

[2] = target: mCD73hF1-S269A (mouse; human) (UniProt Q61503); assay: ELISA, 10H5 titrated on the mutant protein
[3] = target: mouse CD73-D296E-K297R (mouse) (UniProt Q61503); assay: ELISA, 10H5 titrated on the mutant protein
mCD73hF4 = target: T2, mCD73hF4 (human; mouse, UniProt Q61503 307-551, limits assumed); assay: ELISA, antibody titrated; panel mCD73 hF4
T2 construct: Mouse-human domain swapping protein, expressed in F293 cells
T2 sequence: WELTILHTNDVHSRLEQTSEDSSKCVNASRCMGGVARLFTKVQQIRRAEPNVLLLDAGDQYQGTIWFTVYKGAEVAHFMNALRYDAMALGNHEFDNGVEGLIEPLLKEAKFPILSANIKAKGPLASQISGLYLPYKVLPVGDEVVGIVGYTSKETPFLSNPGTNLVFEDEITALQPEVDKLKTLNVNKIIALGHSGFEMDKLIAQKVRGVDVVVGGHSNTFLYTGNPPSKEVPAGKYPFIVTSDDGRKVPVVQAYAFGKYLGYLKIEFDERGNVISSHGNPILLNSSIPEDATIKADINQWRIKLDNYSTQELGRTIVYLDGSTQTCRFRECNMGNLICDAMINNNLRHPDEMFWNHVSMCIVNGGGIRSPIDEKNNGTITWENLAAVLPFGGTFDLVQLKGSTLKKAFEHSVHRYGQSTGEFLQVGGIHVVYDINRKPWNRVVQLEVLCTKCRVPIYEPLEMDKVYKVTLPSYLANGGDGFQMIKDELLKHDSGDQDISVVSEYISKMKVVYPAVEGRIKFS

mCD73hF1-K206A-N211G = target: T3, mCD73hF1-K206A-N211G (mouse; human, UniProt Q61503 29-270; Q61503 307-551); assay: ELISA, antibody titrated; panel mCD73 hF1 K206A N211G
T3 chain: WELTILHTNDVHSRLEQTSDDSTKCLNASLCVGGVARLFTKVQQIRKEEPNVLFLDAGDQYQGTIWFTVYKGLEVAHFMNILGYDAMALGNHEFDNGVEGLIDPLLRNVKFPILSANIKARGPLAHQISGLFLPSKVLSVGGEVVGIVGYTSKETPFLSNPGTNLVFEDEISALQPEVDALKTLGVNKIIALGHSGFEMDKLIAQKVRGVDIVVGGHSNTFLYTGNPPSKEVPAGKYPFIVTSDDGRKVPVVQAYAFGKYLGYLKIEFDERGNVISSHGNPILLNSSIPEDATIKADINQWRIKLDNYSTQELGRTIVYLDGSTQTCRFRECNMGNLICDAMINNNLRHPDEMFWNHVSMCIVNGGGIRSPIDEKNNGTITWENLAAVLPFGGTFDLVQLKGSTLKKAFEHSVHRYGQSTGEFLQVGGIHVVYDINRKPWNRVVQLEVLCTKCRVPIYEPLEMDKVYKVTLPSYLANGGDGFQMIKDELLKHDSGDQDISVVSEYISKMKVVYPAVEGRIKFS

[4] = target: mCD73hF1-R297K (mouse; human) (UniProt Q61503); assay: ELISA
[5] = target: mouse CD73-D296E-K297R (mouse) (UniProt Q61503); assay: ELISA
mCD73hF1 (mouse; human) [6] = target: mCD73hF1 (mouse; human) (UniProt Q61503); assay: ELISA, antibody titrated; panel mCD73 hF1
human CD73 [7] = target: T4, human CD73 (human, UniProt P21589 27-549); assay: Biacore SPR
T4 construct: the antigen of the Biacore assay is only called human CD73 antigen; also called human CD73 antigen; Recombinant Human CD73-6xHis
T4 sequence: T1 sequence

mCD73hF3 (mouse; human) = mCD73hF3 (mouse; human) (UniProt Q61503); assay: ELISA, antibody titrated; panel mCD73 hF3
human CD73 [8] = target: T4, human CD73; assay: Biacore SPR; remark: listed apart in the source
mCD73hF2 (mouse; human) = mCD73hF2 (mouse; human) (UniProt Q61503); assay: ELISA, antibody titrated; panel mCD73 hF2
mCD73hF1 (mouse; human) [9] = target: mCD73hF1 (mouse; human) (UniProt Q61503); assay: ELISA, antibody titrated; right panel mCD73 hF1

B1: 10H5 antibody (antibody, V domains shown)
VH: QVKLQQSGAELVKPGASVKISCKASGYVFSSYWINWVKQRPGKGLEWIGQIYPGDGNTNYNRNFKGKATLTADKSSSTAYMQLSSLTSEDSAVYFCAGFADWGQGTTVTVSS
VL: DIELTQSPSSLSASLGERVSLTCRASQDIGDSLIWLQQEPDGTIKRLIYATSSLDSGVPKRFSGSRSGTSYSLTISSVEAEDAATYYCQQYSGYPLTFGSGTKLEIK
notes: Mouse scFv-derived variable domains put into an expression vector with CH and CL chains (full-length chimeric antibody); also called 10H5 chimeric; 10H5 MM
Which “AMP concentration in supernatant by LC/MS, MDA-MB-231 cells, 400 µM AMP, 10 nM antibody, 6 hours” value [1] does the source give for B1 here?
Its value is 347 µM.

And the “AMP concentration in supernatant by LC/MS, MDA-MB-231 cells, 400 µM AMP, 10 nM antibody, 24 hours” value [1]?
The value was 290 µM.

And the “AMP consumption, Calu-1 cells, 10 nM antibody, 24 hrs” value [1]?
Its value is less than 20%.

What about the “AMP consumption, MDA-MB-231 cells, 10 nM antibody, 6 hr” value [1] of the same binder?
The value was less than 10%.

What about the “AMP consumption, MDA-MB-231 cells, 10 nM antibody, 24 h” value [1] of the same binder?
Its value is less than 50%.

What about the EC50 (read off the curve) [2] of the same binder?
Its EC50 (read off the curve) is 0.5 nM.

And the EC50 (read off the curve) [3]?
Its EC50 (read off the curve) is 0.2 nM.

What about the “EC50 (read off the curve)” value (mCD73hF4) of the same binder?
Its value is roughly 0.2 nM.

And the “EC50 (read off the curve)” value (mCD73hF1-K206A-N211G)?
Its value is roughly 0.2 nM.

And the binding affinity relative to that to mCD73hF1 [4]?
The binding affinity relative to that to mCD73hF1 was 0.1 fold.

And the Kd [5]?
The Kd was 0.098 nM.

What about the EC50 (read off the curve) (mCD73hF1 (mouse; human) [6]) of the same binder?
The EC50 (read off the curve) was 0.3 nM.

And the koff (human CD73 [7])?
Its koff is 5.78e-05 s⁻¹.

What about the kon (human CD73 [7]) of the same binder?
The kon was 84600 M⁻¹ s⁻¹.

What about the EC50 (read off the curve) (mCD73hF3 (mouse; human)) of the same binder?
Its EC50 (read off the curve) is 0.2 nM.

And the Kd (human CD73 [8])?
Its Kd is 0.683 nM.

And the EC50 (read off the curve) (mCD73hF2 (mouse; human))?
Its EC50 (read off the curve) is 0.2 nM.

What about the EC50 (read off the curve) (mCD73hF1 (mouse; human) [9]) of the same binder?
Its EC50 (read off the curve) is 0.3 nM.
